Experiment [1] has as its system J1 mESCs. Put plainly: RA-induced differentiation, expression of Tip60/p400 and SRCAP complex genes (qRT-PCR, Western blot). Type of experiment: cell-based, mouse. The settings on record: 1 μM RA, ES cell medium without LIF; vs day 0; technical duplicate. How it is done:
mESCs were plated in 96-well ultra-low attachment round bottom plates (Corning) at 1000 cells/well in ES cell medium without LIF. Media was changed every other day before day 8 and daily thereafter. For RA treatment, mESCs seeded on gelatin-coated dishes were treated with 1 μM RA in ES cell medium without LIF. Undifferentiated mESCs cultured with LIF in gelatin-coated dishes, are considered as EB and RA day 0.
Total RNA extraction, reverse transcription and quantitative real-time PCR (qPCR) were performed as previously described. Gene expression values were calculated by normalization to Actb using the comparative CT method. Primers used in the study are listed in Supplementary Table S6.

Experiment [2] has as its target Gas41 YEATS domain (aa 15–159) S73A (human) (UniProt O95619). The experiment is described as follows: ITC; GAS41 YEATS (15-159) WT or mutants titrated with H3(1-34)K27ac peptide; 15 °C; 20 mM Tris-HCl pH 7.5, 500 mM NaCl, 5% glycerol, 2 mM β-mercaptoethanol; One Set of Binding Sites model.
The target of experiment [3] is Gas41 YEATS domain (aa 15–159) with E95 mutated (human) (UniProt O95619). The experiment is described as above.
Experiment [4] has as its target Gas41 YEATS domain (aa 15–159) Y74A (human) (UniProt O95619). The description is as above.
Experiment [5] addresses Gas41 YEATS mutants with residues H71, S73, Y74 and F96 replaced with alanine. The experiment is described as above.

From paper PMC5995911, “Gas41 links histone acetylation to H2A.Z deposition and maintenance of embryonic stem cell identity” (Cell Discovery, 2018) come the findings set out here.

For the compound `CC1=C(/C=C/C(C)=C/C=C/C(C)=C/C(=O)O)C(C)(C)CCC1` [RA, retinoic acid], the “change in gene expression of Tip60/p400 and SRCAP complex components” value in experiment [1] is on record as “almost all the genes were downregulated”.
On to “H3 (1–34) K27ac peptide (from UniProt P68431 2-35)”, for which the fold reduction of binding against wild type in experiment [2] turned out to be 14 fold; in experiment [3] it was 7 fold; in experiment [4] it was 69 fold; in experiment [5] it was 94 fold.
